Experimental data reported in patent publication US5670637, “Nucleic acid ligands” (NeXstar Pharmaceuticals, Inc.).

Biological target: nerve growth factor (NGF) (UniProt P01139 P01139:122-241)
Experiment: filter
Conditions: chain copies: 2

Sequence of nerve growth factor (NGF) (P01139 122-241, one chain of several): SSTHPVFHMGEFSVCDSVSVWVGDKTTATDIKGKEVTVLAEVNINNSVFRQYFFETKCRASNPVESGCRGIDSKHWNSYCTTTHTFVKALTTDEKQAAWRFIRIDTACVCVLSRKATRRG

B1: hsngf.a (ssRNA)
RNA: GGGAGCUCAGAAUAAACGCUCAACUCAUGGAGCGCAAGACGAAUAGCUACAUAUUCGACAUGAGGCCCGGAUCCGGC
binding result: binds
